Assay [1] addresses full-length Arabidopsis thaliana NAP1-Related Protein 2 (AtNRP2-His) (Arabidopsis thaliana) (UniProt Q8LC68). As to the kind of experiment: native gel or EMSA; native polyacrylamide gel; increasing amounts of H2A-H2B dimer titrated into a constant amount (5 µM) of AtNRP1/2 proteins.
The target in assay [2] is full-length Arabidopsis thaliana NAP1-Related Protein 1 (AtNRP1-His) (Arabidopsis thaliana) (UniProt Q9CA59). Described as above.
For assay [3], the target named is full-length Arabidopsis thaliana NAP1-Related Protein 2 (AtNRP2-His) (Arabidopsis thaliana) (UniProt Q8LC68). The experiment in a line: ITC; H2A-H2B (200-210 µM) in the syringe, AtNRP1/AtNRP2 (20 µM) in the cell; 25 °C; 20 mM PIPES pH 7.4, 300 mM NaCl; sequential binding site model. (ITC needs no label: the signal is the heat of the interaction.)
Assay [4] deals with full-length Arabidopsis thaliana NAP1-Related Protein 1 (AtNRP1-His) (Arabidopsis thaliana) (UniProt Q9CA59). The description is as above.

Arabidopsis thaliana histone H2A-H2B dimer, sequence (Q9LD28 whole entry): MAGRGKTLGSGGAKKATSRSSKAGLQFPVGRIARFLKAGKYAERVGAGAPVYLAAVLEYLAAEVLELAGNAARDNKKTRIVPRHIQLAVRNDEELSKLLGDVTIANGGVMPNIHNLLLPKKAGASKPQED
Arabidopsis thaliana histone H2A-H2B dimer, sequence (Q9LQQ4 whole entry): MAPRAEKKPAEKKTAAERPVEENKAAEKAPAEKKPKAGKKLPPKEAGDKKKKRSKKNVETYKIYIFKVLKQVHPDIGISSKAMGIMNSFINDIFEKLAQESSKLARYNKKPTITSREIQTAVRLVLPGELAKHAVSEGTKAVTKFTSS
full-length Arabidopsis thaliana NAP1-Related Protein 1 (AtNRP1-His) (Arabidopsis thaliana), sequence (Q9CA59 whole entry): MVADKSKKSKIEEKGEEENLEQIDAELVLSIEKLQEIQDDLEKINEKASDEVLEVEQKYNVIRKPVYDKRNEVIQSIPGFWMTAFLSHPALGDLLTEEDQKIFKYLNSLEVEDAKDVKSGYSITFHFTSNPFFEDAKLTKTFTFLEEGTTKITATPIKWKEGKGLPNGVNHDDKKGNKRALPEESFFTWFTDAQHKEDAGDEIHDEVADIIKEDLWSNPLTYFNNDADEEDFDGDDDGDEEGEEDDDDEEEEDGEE
full-length Arabidopsis thaliana NAP1-Related Protein 2 (AtNRP2-His) (Arabidopsis thaliana), sequence (Q8LC68 other isoform, or with tags, fused parts or gaps): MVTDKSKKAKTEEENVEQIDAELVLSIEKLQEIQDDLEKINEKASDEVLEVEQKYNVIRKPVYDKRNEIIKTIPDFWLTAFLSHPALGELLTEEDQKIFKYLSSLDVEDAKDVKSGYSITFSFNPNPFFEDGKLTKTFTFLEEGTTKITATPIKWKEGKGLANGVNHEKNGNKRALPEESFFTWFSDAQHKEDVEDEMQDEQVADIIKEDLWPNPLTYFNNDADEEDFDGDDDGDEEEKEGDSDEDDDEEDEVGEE

Substance “Arabidopsis thaliana histone H2A-H2B dimer (from UniProt Q9LD28 1-130; Q9LQQ4 1-148) (complex)” yielded a stoichiometry N (H2A-H2B dimers per NRP dimer) in assay [1] of 2. The substance further had a stoichiometry N (H2A-H2B dimers per NRP dimer) in assay [2] of 2. In assay [3], this substance showed a Kd1 (sequential binding model, first site) of 39.6 nM; a Kd2 (sequential binding model, second site) of 1 µM; a dH1 (sequential binding model, first site) of 7.28 kcal/mol; a dH2 (sequential binding model, second site) of 1.33 kcal/mol. In assay [4], the Kd1 (sequential binding model, first site) turned out to be 130 nM; the Kd2 (sequential binding model, second site) came out at 2.4 µM; the dH1 (sequential binding model, first site) was determined as 8.51 kcal/mol; the dH2 (sequential binding model, second site) stood at 6 kcal/mol.

Values taken from PMC6630525.
